The record followed here is doi:10.1101/2024.12.12.628104 (bioRxiv, 2024).

This series concerns the molecule itself. The series is described as follows: […]; 50 uM, […], pH 6.9; […].

Usually stoichiometry N stands for a count of units in the complex or per binding partner.

B1: Francisella tularensis dihydrolipoyl dehydrogenase (IPD) (enzyme)
chain: MSDIKTQVVVLGSGPGGYSAAFRAADLGLEVVLVERYAEIGGVCLNVGCIPSKAMLHIAKVINEARHLESLGIIEMGGLKINRENLLKYKDGVIGKLTGGLKGMAQMRKVKIVQGYGKFTSDKELAVEAADGKVTKIAFDNCIIAAGSSVIKLPFVPEDDRIIDSTGALEMKEIPETMLVVGGGIIGLEMAQVYSELGTKITVVEFADQLMNGVDKDLVKAYQKVNSRYDVRLKTAVTAMEAKEDGIYVTMEGDHPAKDERFDRVLMAIGRKPNGKLIDAEKAGVKVDERGFIPVDKQLRTNVPHIFAIGDIVGQPMLAHKAVPEGRTAAEVISGLNHSFDPLVIPSVAYTDPEVAWVGETETSAKAKGIKYEKGVFPWAASGRSLSIDRSEGMTKILFDENHKIIGASIVGTHAGELISEAAIAIEMGCDAEDIALTVHPHPTLSESLMMATEVYEGTATDLPPQKKKK
notes: also called dihydroprolyl dehydrogenase; Francisella IPD
For the protein B1, the “stoichiometry N” value is 2.
